According to the nanobody polyreactivity screen of Harvey et al. (2022):

Assay: yeast display, Sf9 membrane polyspecificity reagent, FACS + sequencing; frameworks hold sequencing errors
Summary of the method: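 A nanobody's polyreactivity label depends on the gate it was sorted from. Yeast display cells were stained with 10% biotinylated, detergent-solubilized Sf9 membrane reagent for 1 hour at 4 °C, enriched on streptavidin microbeads and sorted by FACS. The low and high (top ~1%) gates were set on anti-HA fluorescence for expression and streptavidin fluorescence for reagent binding.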

QVQLVESGVGLVQAGGSLRLSCAASGRPFVAYAMGWYRQAPGTERELVARISSGGGTYADSVKGRFTISRDNAKNTVYLQMNSLKPEDTAVYYCATSLQRQFDYWGQGTQVTVSS
polyreactivity (PSR sort gate): low polyreactivity

QVQLVESGGGLVQAGGSLRLSCAASGRIFDNYAMGWYRQAPGKERELVAAITYIDSGTYYADSVKGRFTISRDNAKNTVYLQMNSLKPEDTAVYYCAVRLNSDSKRKTQKYGYWGQGTQVTVSS
polyreactivity (PSR sort gate): low polyreactivity

QVQLVESGGGLVHAGGSLRLSCAASGRIYYFNAMGWYRQAPGKERELVATITYIGGSTHYADSEKGRFTISRDNAKNTVYLQMNSLKPEVTAVYYCAVRDGKDTDTYWYGYWGQGTQVTVSS
polyreactivity (PSR sort gate): low polyreactivity

QVQLVESGGGLVQAGGSLRLSCAASGLILSRNVMGWYRQAPGKERELVAAINWSSGSTYYADSVKGRFTISRDNGKNTVSLQMNSLKPEDTAVYYCAATVFYDAEYDYWGQGSQVTVSS
polyreactivity (PSR sort gate): high polyreactivity

QVQLVETGGGLVQAGGSLRLSCAASGFIFAYNAMGWYRQAPGKERELVAAISWSGGSTYYADSVKGRFTISRDNAKITVYLQMNCLKPEDTAVYYCNAVSYFGARYDYWGQGTQVTVSS
polyreactivity (PSR sort gate): high polyreactivity

QVPLVKSGAGFVQAGGILRLSCAASGRIFPFYVNGLARQAAGQERELVATINWSGGSTYYADSVKGRFTISRDNAKNTVYLQMNSLKPADTAVYYCAAAGIGGGGWGQGTQVTVSS
polyreactivity (PSR sort gate): low polyreactivity

QVQLVDSGGCLVQAGGSLRLSCAASGFIFNFYAMGWYRQAPRQQREFVAAISTRGGSTYYADSVKGRFTISRDNAKNTVFLQMKSLKPEDTAVYYCAARRFWGSRRLDYWGQCTQVTVSS
polyreactivity (PSR sort gate): high polyreactivity

QVQLVESGGGLVQAGGSLRLSCAASGRIFRGYTMGWYRQAPGKERELVAAIRSGSRTNYADSVKGRFTISRDNAKNTVYLQMNSLKPEDTAVYYCAADSGYGRPYYYWGQGTQVTVSS
polyreactivity (PSR sort gate): high polyreactivity

QVQLVESGGGLVQAGGILRLSCPASGIIIPLYAMGWYIQAPGKERELVATINIGGSTNYADSVKGRFTISRDNAKNTVYLQMNSLKPEDTAVYYCAADVDSLQRYESWGQGTQVTVSS
polyreactivity (PSR sort gate): low polyreactivity

QVQLVESGGGLFQAGGRLRLSCAATGSIFSVYTMGWYRQAPGKERELVATISFSVGRTYYADSVKGRFTISRDNEKNSVYLQMNSLKPEDTAVYYCNARSCGGYYHWGQGTQVTVSS
polyreactivity (PSR sort gate): high polyreactivity

QVQLVESGGGLVQAGGSLRLSCAASGRIFSGNAMGWYRQAPGKERELVAAISRGGSTDYADSVKGRFTISRDNAKNTVYLQMNSLKPEDTAVYYCAARVNGKRRRYDYWGQGTQVTVSS
polyreactivity (PSR sort gate): high polyreactivity

QVQLVESGGGLVQAGGSLRLSCAASGITLYGYTMGWYRQAPGKERELVAGISRGGSTYYADSVKGRFTISRDNAKNSVYLEMNSLKPDVTAVYYCAAAGWYRGDYWGQGTQVTVSS
polyreactivity (PSR sort gate): high polyreactivity

QVQLVESGGGLVQAGGSLRLSCAASGITFRRNAMGWSRQAHGQVRELVAAITRSGGSTYYADSVKGRFTISRDNAKNTVYLQMNSLKPEDTADYYCAADNTNDEDTGYYWGQGTQVTVSS
polyreactivity (PSR sort gate): high polyreactivity

QVQLVESGGGLDQAGGSLRLSCAASGLTFGTYPMGWYRQAPGKETELVAAIRSGGSTNYADSVKGRFTISRDNAKNTVYLQMNSLKPEDTAVYYCNSVTVYYRKYEFWGQGTQVTVSS
polyreactivity (PSR sort gate): high polyreactivity

QVQLGESGGGLVQAGVSLRLSCAASGRTFGSYAMGWYRQAPGKESEMVAVISWSGGITYYADSVKGRFTISRDNAKNTVYLQMNSLKPEDTAVYYCAASPRRDENAGRVRLYYWGQGTQVTVSS
polyreactivity (PSR sort gate): high polyreactivity

QVQLVESGGGLVQAGGSLRLSCAASGFIFVDNAMGWYRQAPRQERELVASITRGGSTDYADSVKGRFTISRDNAKNTVYLQRNSLKPEDTAVYYCAASWHRPAPDEGMDYWGQGTQVTVSS
polyreactivity (PSR sort gate): low polyreactivity

QVQLVESGGGLVQAGGSLRLSCAASGRTIRWYAMGWYRQAPGKERELVAAITWIGGSTYYADSVKGRFTISRDNAKNTVYLQMNSLQPEDTAVYYCATDKDDVSDLGKDYAYFEYDYWGQGTQVTVSS
polyreactivity (PSR sort gate): low polyreactivity

QVQLVESGGGLVQAGGSLRFSSPASGGTFFVNAMGWYRQAPGKERELVASITLSGGSSYYADSVKGRFTISRDNAKNTVYLQMNSLKPEDTAVYYCAKGWTRDNEREREDEYWGQGTQGTVSS
polyreactivity (PSR sort gate): low polyreactivity

QVQLVESGGGLVQAGGSLRLSCAASGRIFGHNSMGWSRQPPWKEMELVATISSGVRTNYADSVKGRFTISRDNAKNTVYLQMNSLKPEDTAVYYCATKTYQFGYSSYYYWGQGTQVTVSS
polyreactivity (PSR sort gate): high polyreactivity

QVQLVESGGGLVQAGGSLRLSCAASGFTFGYYAMGWYRQAPGKERELVAAITYDGDITYYADSVKGRFTISRDNAKNTVYLQMNSLKPEDTAVYYCNRDVLTFNYDYWGQGTQVTVSS
polyreactivity (PSR sort gate): low polyreactivity

QVQLVESGGGLVQAGGSLRLSCAASGFIFVYNAMGWYRQAPGKERELVAAIDYGGGSTTYADSVKGRFTISRDNAKNTVYLQMNSLKPEDTAVYYCAAYYRYLDDIYEYEYWGQGTQVTVSS
polyreactivity (PSR sort gate): low polyreactivity

QVQLVESGGGLVQAGGSLLLSCAASGRIFRYNAMGWYRQAPGKERELVAAISWTVGRTYYADSVKGRFTISRDNAMNTVYLQMNSLKPEDTAVYYCATYFRVWYRSYDYWGQGTQVTVSS
polyreactivity (PSR sort gate): high polyreactivity

QLHLVESGGGLVQAGGSLRLSCAASGRIFFYAMGWYRQAPGKERDLVASITTSGTSTYYADSVKGRFTISRDNSKNTVYLEMNSLKPEDTSVYYCNATSNSIRWYDFYYWGQGTQVTVSS
polyreactivity (PSR sort gate): low polyreactivity

QVHLVESGGGLVQAGGSLRLSCAASGRTSIFNAMGWYRPAPGKERELVAAITARGASTYYADSVKGRFTISRDNAKNTVYLQKNSLKPDDTAVYYCAARDHAFRYYRNPFKGKYDYWGQGTQVTVSS
polyreactivity (PSR sort gate): low polyreactivity

QDQLVESGGGLVQAGGSLRLSCAASGFTLHVYAMGWYRQAPGKERELVAAISTGGNTNYGDSVKGRFTISRDNAKNTVYLQMNSLKPEDTAVYYCNARYTSRRSRRPYYYWGQGTQVTVSS
polyreactivity (PSR sort gate): high polyreactivity

QVQLVESGGGLVQAGGSLRLSCAASGRTFIGYAMGWYRQAPGKERELVAAISRGGSTKYADSVKGRFTISRDNAKNTVYLQMNSLKPEDTAVYYCAVGWSYYAGLRHRYYSGFDYWGQGTQVTLSS
polyreactivity (PSR sort gate): low polyreactivity

QVQLVESGGGLVQAGGSLRLSCAASGRIFGVNAMGWYRQAPGKERELVAAISSGDSTYYADSVKGRFTISRDNAKNTVYLQMTCLKPEDTAVYYCAADVLGTTTTVGGFNYWGQGTQVTVSS
polyreactivity (PSR sort gate): low polyreactivity

QVQLVESGGGLVQAGGSLRLSCADSGITFPVNDMGWSRQAHGKEREFVADITSSGGNTYYADSVKGRFTISRDNAKNTVYLKMNSLIPEDTAVYYCNADDGYFYVYQGWYEEMDYWGQGNQVTVSS
polyreactivity (PSR sort gate): high polyreactivity

QVQLVESGGGLVQAGGSLRLSCAASGCTIWSSAMGWYRQAPGKERELVASITWSGGSTYADSVKGRFTISRDNAKNTVYLQMNSLKPEDTAVYYCARESTLTYYSDDFDYWGQGTQVTVSS
polyreactivity (PSR sort gate): low polyreactivity

QVQLVESGGGLVQAGGSLRLRCAASGSIFNSYAMGWYRQAPGKERELVPAISRRGGSTYYADSVKGRFTISRDNAKNTVYLQMHSLKPEDTAVYYCNATRPRLTYLGVGYGYDYWGQGTQVTVSS
polyreactivity (PSR sort gate): high polyreactivity

QVQLVESGGGLVQAGGSLRLSCAASGRISDVYVMVWYRQAPGKERELFAAITWSGGDTYYADSVKGRFTISRDNAKNTVYLQMNSLKPEDTEVYYCTADTGKWGGNGWYDFDYWGQGTQVTVSS
polyreactivity (PSR sort gate): low polyreactivity

QVQLVESGVGLVQAGGSLRLSCAASGISFLVYAMGWYRQAPGKERELVAAISADAGGTYYADSVKGRFTISRDNAKNNVYFQMNSLKPEDTAVYYCNVDGRSDGDDYWGQGTQVTVSS
polyreactivity (PSR sort gate): low polyreactivity

QVQLVESGGGLVQAGGSLRLSCAASGFTFGSYAMGWYRQAPGKERELVAAITSRGGSTYYADSVKGRFTISRDNAKNTVYLQMNSLKPEDTAVYYCNAVLPVYRTNMDYWGQGTQVTVSS
polyreactivity (PSR sort gate): high polyreactivity

QVQLVESAGGLVQAGGSLSLSCAASGRIFYYNTMGWYRQAPGKERELVAAISSTASTTYADSVKGRFTISRDNAKNTVYLQMNILKPEDTAVYYCAADHRYHWAYPRGYYYWGQGTQVTVSS
polyreactivity (PSR sort gate): high polyreactivity

QVQHVESGGGLVQAGGSLRLSCAASGGIFPTYVMGWYRQAPGKERELVAAIDRNGTSTTYADSVMGRFTISRDNAKNTVYLQMNSLKPEDTAVYYCAAGYNDQTTAYDYWGQGTQVTVSS
polyreactivity (PSR sort gate): low polyreactivity

QVQLVESGGGLVQAGGSLRLSCAASGSTFDDNAMGWYRQAPGKDRELVAGISTNGGSTSYADSVKGRFTISRDNAKNTVYLPMNSLKPEDTAVYYCAKGLYVQFDYWGQGTQVTVSS
polyreactivity (PSR sort gate): low polyreactivity

QVQLVESGGGLVQAGGSLRLSCAASGITFEYYTMGWYRQAPGKERELVAAITQGGGTTYYADSVKGRFTISRDNAKNTVYLQMNSLKPEDTAVYYCAAYVGYLLLYYPTYYYWGQGTQVTVSS
polyreactivity (PSR sort gate): low polyreactivity

QVQLVESGGGLVQAGGSLRLSCAASGSIFAPYSMGWYRQAPGKERELVAAITWSGDSTYYADSVKGRFTISRDNAKNTVYLQMNSMKPEDTSVYYCATEEVYGQGNYWGQGTQLTVSS
polyreactivity (PSR sort gate): low polyreactivity

QVQLGESGGGLVQAGGSLRLSCAASGRTFYGYPMGWYRQAPGKERELVAAISRNGASTFYADSVKGRFTISRDNAKNTVYLQMNSLKPEDTAVYYCNARSWRHTDTSFEYWGQGTQVTVSS
polyreactivity (PSR sort gate): high polyreactivity

QVQLVESGGGLVQAGGSLRLSCAASGSIFRAYAMGWYRQAPGKERELVAGITKSGGSTYYADSVKGRFTISRDHAKNTVYLQMNSLKPEDTAVYYCAAYRSRTYGYWGQGTQVTVSS
polyreactivity (PSR sort gate): high polyreactivity

QVQLVESGGGLVQAGGSLRLSCAASGIIFYDYAMGWYRQAPGKERELVAAITSSGGSTYYADSVKGRFTISRDNAKNTVYLQMNSLKPEDTAVYYCADATRGSGRRYDYWGQGTQVTVSS
polyreactivity (PSR sort gate): high polyreactivity

QVQLVESGGGLVQAGGSLRLSCAASGGTFEYYPMGWYRQAPGKETEMVAGITWGGVSTYYADSVKGRFTLSRDTAKNTVYLQMNSLKPEDTSVFYCAAAYSQDNVWWYYYWGQGTQVTVSS
polyreactivity (PSR sort gate): high polyreactivity

QVQLVESGGGLVQAGGSLRLSCAASGNIFDTNAMGWYRQAPGKERELVATITQRGGTTYYADSVKGRFTISRDNAKNTVYLQINILKPEDTAVYYCNAGPVRLPYDSWGQGTQVTVSS
polyreactivity (PSR sort gate): low polyreactivity
